Measurements as given in US9132169B2, “Methods and compositions for modulating adipocyte function” (Joslin Diabetes Center, Inc., priority 2003, dated 2015).
Entries after “also recorded” stand apart in the source; their conditions may differ.

Tests used:
WT brown preadipocytes = test: Brown adipocyte differentiation, Oil Red O staining; type: cell-based, mouse; conditions: for differentiation of brown preadipocytes, agent alone: brown preadipocyte cell line, single agent; for lipid accumulation as monitored by Oil Red O staining (brown adipocyte differentiation): 33 nM BMP, 10 days, absence of induction cocktail; for differentiation of brown preadipocytes, BMP plus insulin and T3: combination of BMP-6 or -7 plus insulin and T3
Description: (§1) Preadipocytes were grown to confluence (day 0) in differentiation medium (Dulbecco's modified […] medium containing 10% Fetal Bovine Serum supplemented with 20 nM insulin and 1 nM T3). Adipocyte differentiation was induced by treating confluent cells for 48 hours in differentiation medium further supplemented with 0.5 mM isobutylmethylxanthine (IBMX), 0.5 mM dexamethazone, and 0.125 mM indomethacin. After this induction period (day 2), cells were placed back to differentiation medium, which was then changed every second day.
(§2) Dishes were washed twice with phosphate-buffered saline and fixed with 10% buffered formalin for at least 1 hour at room temperature. Cells were then stained for 2 hours at room temperature with a filtered oil red 0 solution (0.5% oil red 0 in isopropyl alcohol), washed twice with distilled water, and visualized.
Brown fat precursor cells were isolated from intrascapular brown fat of newborn mice and immortalized by SV40 T antigen.
To begin to explore the role of BMPs on brown adipogenesis, the effect of six different BMPs on differentiation of WT brown preadipocytes was examined. In the absence of induction cocktail, 33 nM of BMPs were added to the normal culture medium and fresh medium was changed every 2 days.

BMP-6 gene expression = BMP-6 gene expression in wildtype brown adipocytes; type: cell-based, mouse; conditions: acute treatment
[1] = tested on: FAS (fatty acid synthase); test: FAS protein expression in MEF whole cell lysates; type: cell-based, mouse; conditions: MEF cells, presence of induction cocktail or TZD
Description: (§3) MEF cells were grown in culture media containing 1 μM of rosiglitazone, BMPs, or a combination of both for 10 days. Oil Red O staining was performed at the end of differentiation to monitor the degree of adipogenesis. […] Whole cell lysates were isolated from these cells to examine the expression of the adipogenic marker FAS (fatty acid synthase).

[2] = tested on: mouse embryonic fibroblasts (MEFs); test: Adipogenesis in mouse embryonic fibroblasts, Oil Red O staining; type: cell-based; conditions: MEF cells, 1 μM rosiglitazone plus BMP, 10 days
Description: To examine whether BMPs play a role in determining the fate of pluripotent stem cells toward brown adipocyte lineage, murine pluripotent cells, the effect of BMPs on adipogenesis was evaluated in mouse embryonic fibroblasts (MEFs), which were generated lab using the 3T3 protocol of Todaro and Green (J. Cell. Biol. 17:299-313 (1963)). The MEF cells were maintained in Dulbecco's Modified Eagle Medium (DMEM) supplemented with 10% FBS.
as §3

UCP-1 = UCP-1 protein expression by Western blot in brown preadipocytes; type: cell-based, mouse; conditions: combination of 20 nM insulin, 1 nM T3 and 8.3 nM BMP-7
From the text: (§4) PGC-1∀ and UCP-1 are two decisive cellular markers of brown adipocytes.

PPARγ = PPARγ mRNA and protein expression in brown preadipocytes; type: cell-based, mouse
From the text: as §4

[3] = tested on: white preadipocytes (3T3-L1 cells); test: White preadipocyte differentiation, Oil Red O staining; type: cell-based; conditions: for insulin- and insulin/T3-induced differentiation of 3T3-L1 cells: BMP alone or combined with insulin
Description: as §1, §2

UCP-1 promoter = test: UCP-1 expression reporter gene (UCP-1 promoter linked to firefly luciferase); type: cell-based; conditions: 10 uM TZD and retinoic acid, presence of PPARγ and RxRa
From the text: Adaptive thermogenesis is an important component of energy homeostasis and a metabolic defense against obesity.

[4] = tested on: Pref-1 (preadipocyte factor-1); test: Pref-1 expression by quantitative RT-PCR in IRS-1 KO cells; type: cell-based, mouse; conditions: 30 nM over six days
From the text: IRS-1 signalling plays an important role in insulin resistance, which is a hallmark of Type II diabetes.

PGC-1a = PGC-1a mRNA expression by quantitative RT-PCR in brown preadipocytes; type: cell-based, mouse
From the text: as §4

p38 MAPK = test: BMP signaling in WT brown preadipocytes, phospho-specific antibody Western blot; type: cell-based, mouse; conditions: WT brown preadipocytes treated with recombinant BMP-6, phospho-specific antibodies (Thr180/Tyr182)
Description: (§5) Brown fat precursor cells were isolated from intrascapular brown fat of newborn mice and immortalized by SV40 T antigen. […] Following differentiation with an induction cocktail of 20 nM insulin, 1 nM thyroid hormone [3,5,3′-triiodothyronine (T3)], 0.5 μM dexamethazone, 0.125 mM indomethacin, and 0.5 mM isobutylmethylxanthine, pre-adipocytes became smaller, rounded up, accumulated fat, and the cytoplasm/nuclear-ratio increased dramatically. Once fully differentiated, multi-locular fat droplets could be detected both microscopically and by Oil Red-O staining. Expression of UCP-1 was detected at basal state and upon β-adrenergic stimulation, confirming the features of brown adipocytes (methods described in Klein et al., J. Biol. Chem. 274:34795-34802 (1999)).
(§6) To see if BMPs were able to transmit signals into these cells, the WT brown preadipocytes were treated with recombinant BMP-6 (R&D Systems).

Smad 1/5/8 = test: as above; type: cell-based, mouse
Description: as §5, §6

[5] = tested on: IRS-1 KO brown preadipocytes; test: Differentiation of IRS-1 knockout brown preadipocytes; type: cell-based, mouse
Description: as §1, §2
These factors utilize a complex signaling pathway to exert their pleiotropic biological effects involving activation of their respective cell surface receptors and phosphorylation of several intracellular insulin/IGF-1 receptor substrates (IRS). To determine the role of this signaling pathway in the regulation of brown adipogenesis and metabolism, brown preadipocyte cell lines were generated from wild-type (WT) and different IRS knockout (KO) mice (Fasshauer et al., Mol Cell Biol 21:319-329 (2001); Tseng et al., J Biol. Chem. 277:31601-31611 (2002); Tseng et al., Mol Cell Biol 24:1918-1929 (2004)). These cells were studied in both their fibroblastic and differentiated states. […] This occurred not only at the levels of lipid accumulation, but also involved blockade of the normal pattern of progression in the transcriptional regulators of adipogenesis, such as C/EBPα and PPARγ, as well as thermogenic marker UCP-1.
The differentiation inductive effect of BMP-6 is more easily seen in brown adipocytes from IRS-1 knockout animals, which are known to have a defect in adipocyte differentiation. […]

[6] = standard induction conditions (W induction)

Q: With `N[C@@H](Cc1cc(I)c(Oc2ccc(O)c(I)c2)c(I)c1)C(=O)O` [T3, 3,5,3′-triiodothyronine, reference compound] as the molecule, how does the “differentiation of brown preadipocytes, agent alone” value (WT brown preadipocytes) read?
A: pro-differentiative effects

Q: What does the source list for “insulin: known inducer of adipocyte differentiation”?
A: differentiation of brown preadipocytes, agent alone (WT brown preadipocytes): pro-differentiative effects; BMP-6 gene expression (BMP-6 gene expression): acutely induce

Q: “IGF-1: known inducer of adipocyte differentiation” was tested. Which BMP-6 gene expression (BMP-6 gene expression) did it give?
A: acutely induce

B1: BMP-7: bone morphogenetic protein 7 (protein, listed as Homo sapiens)
chain: STGSKQRSQNRSKTPKNQEALRMANVAENSSSDQRQACKKHELYVSFRDLGWQDWIIAPEGYAAYYCEGECAFPLNSYMNATNHAIVQTLVHFINPETVPKPCCAPTQLNAISVLYFDDSSNVILKKYRNMVVRACGCH
Q: What does the source list for B1?
A: FAS protein expression [1]: induced FAS protein expression; lipid accumulation as monitored by Oil Red O staining (brown adipocyte differentiation) (WT brown preadipocytes): substantial increase in lipid accumulation; differentiation of brown preadipocytes, agent alone (WT brown preadipocytes): pro-differentiative effects; differentiation of brown preadipocytes, BMP plus insulin and T3 (WT brown preadipocytes): strongly enhanced; differentiation of brown preadipocytes, insulin plus B7 (WT brown preadipocytes; combination with insulin): strong combination effects; TZD effects on adipocyte differentiation (Oil Red O) [2]: potentiated the TZD effects; UCP-1 expression, combination treatments (UCP-1): strongest induction; PPARγ expression, combination treatments (PPARγ; combination of 20 nM insulin, 1 nM T3 and 8.3 nM BMP-7, Western blot): strongest induction; insulin- and insulin/T3-induced differentiation of 3T3-L1 cells [3]: Little to no effect; TZD/RA-induced stimulation of UCP-1 promoter activity (UCP-1 promoter): enhanced

B2: BMP-6: Recombinant human BMP-6 (R & D Systems, MN) (protein, listed as Homo sapiens)
chain: RSASSRRRQQSRNRSTQSQDVARVSSASDYNSSELKTACRKHELYVSFQDLGWQDWIIAPKGYAANYCDGECSFPLNAHMNATNHAIVQTLVHLMNPEYVPKPCCAPTKLNAISVLYFDDNSNVILKKYRNMVVRACGCH
Q: How did the FAS protein expression [1] turn out when B2 was run?
A: induced FAS protein expression

Q: And the “morphology of wild-type brown pre-adipocytes” value (WT brown preadipocytes)?
A: cause changes in the morphology

Q: What about the “lipid accumulation as monitored by Oil Red O staining (brown adipocyte differentiation)” value (WT brown preadipocytes) of the same molecule?
A: substantial increase in lipid accumulation

Q: And the “differentiation of wildtype brown preadipocytes, without induction” value (WT brown preadipocytes; absence of standard induction conditions (W/O induction))?
A: increased the level of brown adipocyte differentiation

Q: And the “differentiation of brown preadipocytes, agent alone” value (WT brown preadipocytes)?
A: pro-differentiative effects

Q: And the “differentiation of brown preadipocytes, BMP plus insulin and T3” value (WT brown preadipocytes)?
A: strongly enhanced

Q: What about the “differentiation of wildtype brown preadipocytes, with induction” value (WT brown preadipocytes; [6]) of the same molecule?
A: enhance differentiation; also recorded: enhanced the level of differentiation

Q: What about the “acceleration of differentiation (Oil Red O staining)” value (WT brown preadipocytes; wild-type brown adipocytes, presence of induction cocktail) of the same molecule?
A: 1 to 2 days

Q: And the “TZD effects on adipocyte differentiation (Oil Red O)” value [2]?
A: potentiated the TZD effects

Q: What about the Pref-1 expression [4] of the same molecule?
A: down-regulation

Q: And the “PGC-1a mRNA expression at day 3” value (PGC-1a; Q-RT-PCR, day 3)?
A: quickly induced

Q: And the “PGC-1a mRNA expression as differentiation progressed to day 9” value (PGC-1a; Q-RT-PCR, to day 9)?
A: further increased

Q: What about the “expression of PGC-1 during spontaneous differentiation” value (PGC-1a; addition of recombinant BMP-6) of the same molecule?
A: induced expression

Q: And the “PGC-1a mRNA expression at 0, 3, and 6 days after treatment” value (PGC-1a; quantitative RT-PCR, FIG. 3)?
A: increase

Q: What about the “activation of p38 MAPK” value (p38 MAPK) of the same molecule?
A: quickly activated

Q: And the “activation of p38 MAPK” value (p38 MAPK; listed as BMP6)?
A: activation

Q: What about the “activation of Smad 1/5/8” value (Smad 1/5/8; WT brown preadipocytes treated with recombinant BMP-6) of the same molecule?
A: quickly activated

Q: And the “activation of Smad 1/5/8” value (Smad 1/5/8; WT brown preadipocytes treated with recombinant BMP-6, listed as BMP6)?
A: activation

Q: And the PPARγ protein expression (PPARγ; BMP-6 treatment, course of differentiation (0, 3, 6 days), Western blot)?
A: markedly induced; also recorded: approximately maximal by day 3; also recorded: increase

Q: What about the “PPARγ mRNA expression” value (PPARγ; BMP-6 treatment, course of differentiation (0, 3, 6 days), quantitative RT-PCR) of the same molecule?
A: markedly induced; also recorded: approximately maximal by day 3; also recorded: increase

Q: And the “expression of PPARγ during spontaneous differentiation” value (PPARγ; addition of recombinant BMP-6)?
A: induced expression

Q: What about the “differentiation of white preadipocytes” value ([3]; 33 nM, 8 days) of the same molecule?
A: did not induce differentiation

Q: What about the “insulin- and insulin/T3-induced differentiation of 3T3-L1 cells” value [3] of the same molecule?
A: Little to no effect

Q: What about the “WAT differentiation (3T3-L1), without induction” value ([3]; W/O induction) of the same molecule?
A: no change

Q: And the “differentiation of 3T3-L1 cells, with induction” value [3, 6]?
A: inhibited the level of differentiation

Q: And the “differentiation of IRS-1 KO brown preadipocytes” value ([5]; 30 nM over six days)?
A: restores the defects in differentiation

Q: And the “BAT differentiation of IRS-1 knockout preadipocytes, without induction” value ([5]; W/O induction)?
A: no change

Q: And the “differentiation of IRS-1 knockout brown preadipocytes, with induction” value [5, 6]?
A: rescue, at least partially; also recorded: enhanced the level of differentiation

B3: BMP-5: bone morphogenetic protein 5, added at 33 nM to culture medium (protein, listed as Homo sapiens)
chain: NQNRNKSSSHQDSSRMSSVGDYNTSEQKQACKKHELYVSFRDLGWQDWIIAPEGYAAFYCDGECSFPLNAHMNATNHAIVQTLVHLMFPDHVPKPCCAPTKLNAISVLYFDDSSNVILKKYRNMVVRSCGCH
Q: For B3, which “lipid accumulation as monitored by Oil Red O staining (brown adipocyte differentiation)” value (WT brown preadipocytes) is on record?
A: weaker effect

B4: BMP-3: bone morphogenetic protein 3, added at 33 nM to culture medium (protein, UniProt P12645 363-472, looked up)
Bone morphogenetic protein 3: QWIEPRNCARRYLKVDFADIGWSEWIISPKSFDAYYCSGACQFPMPKSLKPSNHATIQSIVRAVGVVPGIPEPCCVPEKMSSLSILFFDENKNVVLKVYPNMTVESCACR
Q: How did the “lipid accumulation as monitored by Oil Red O staining (brown adipocyte differentiation)” value (WT brown preadipocytes) turn out when B4 was run?
A: no effect

B5: BMP-4: bone morphogenetic protein 4, added at 33 nM to culture medium (protein, listed as Homo sapiens)
chain: SPKHHSQRARKKNKNCRRHSLYVDFSDVGWNDWIVAPPGYQAFYCHGDCPFPLADHLNSTNHAIVQTLVNSVNSSIPKACCVPTELSAISMLYLDEYDKVVLKNYQEMVVEGCGCR
Q: For B5, which “lipid accumulation as monitored by Oil Red O staining (brown adipocyte differentiation)” value (WT brown preadipocytes) is on record?
A: substantial increase in lipid accumulation
